The values below come from paper PMC12217166, “Conformational dynamics and membrane insertion mechanism of B4GALNT1 in ganglioside synthesis” (Nature Communications, 2025).

Series [1] addresses His10-ΔN46-B4GALNT1 (human B4GALNT1 lumenal domain construct ΔN46) (human) (UniProt Q00973). Description: non-reducing SDS-PAGE; purified protein in SDS loading dye without or with 50 mM DTT, heated 5 min at 95 °C, NuPAGE 4-12% Bis-Tris gel, Coomassie stain; dimer seen without reducing agent.
Series [2] concerns the molecule itself. The series is described as above.

The term stoichiometry N denotes the number of molecules, sites or subunits per partner or assembly. Take “His10-ΔN46-B4GALNT1 (human B4GALNT1 lumenal domain construct ΔN46) (from UniProt Q00973 47-533) (domain or fragment)”: the stoichiometry N in series [1] stood at 2.

B1: B4GALNT1 lumenal domain construct ΔN27 (entire lumenal domain, human) (domain or fragment)
chain: HHHHHHHHHHGTRDAPGLRLPLAPWAPPQSPRRPELPDLAPEPRYAHIPVRIKEQVVGLLAWNNCSCESSGGGLPLPFQKQVRAIDLTKAFDPAELRAASATREQEFQAFLSRSQSPADQLLIAPANSPLQYPLQGVEVQPLRSILVPGLSLQAASGQEVYQVNLTASLGTWDVAGEVTGVTLTGEGQADLTLVSPGLDQLNRQLQLVTYSSRSYQTNTADTVRFSTEGHEAAFTIRIRHPPNPRLYPPGSLPQGAQYNISALVTIATKTFLRYDRLRALITSIRRFYPTVTVVIADDSDKPERVSGPYVEHYLMPFGKGWFAGRNLAVSQVTTKYVLWVDDDFVFTARTRLERLVDVLERTPLDLVGGAVREISGFATTYRQLLSVEPGAPGLGNCLRQRRGFHHELVGFPGCVVTDGVVNFFLARTDKVREVGFDPRLSRVAHLEFFLDGLGSLRVGSCSDVVVDHASKLKLPWTSRDAGAETYARYRYPGSLDESQMAKHRLLFFKHRLQCMTSQ
modifications: N-linked glycosylation (3 predicted sites, positions not given)
As to B1, the “stoichiometry N” value in series [2] is 2.
